Assay [1] concerns the target T1, toxic shock syndrome toxin-1 (TSST-1) (Staphylococcus aureus, UniProt P06886 41-234).
T1 sequence: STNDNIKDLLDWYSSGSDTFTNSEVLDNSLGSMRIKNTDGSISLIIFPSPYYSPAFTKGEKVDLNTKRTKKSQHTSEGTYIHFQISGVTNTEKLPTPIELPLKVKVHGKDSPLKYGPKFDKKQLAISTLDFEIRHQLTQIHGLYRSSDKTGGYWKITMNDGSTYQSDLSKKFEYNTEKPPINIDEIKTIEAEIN
The assay can be described thus: Western blot with purified toxin. In general terms: Immunoblotting shows a protein as a band on a membrane.

In assay [2] the target is T2, staphylococcal enterotoxin A (SEA) (Staphylococcus aureus, UniProt P0A0L1 25-257).
T2 sequence: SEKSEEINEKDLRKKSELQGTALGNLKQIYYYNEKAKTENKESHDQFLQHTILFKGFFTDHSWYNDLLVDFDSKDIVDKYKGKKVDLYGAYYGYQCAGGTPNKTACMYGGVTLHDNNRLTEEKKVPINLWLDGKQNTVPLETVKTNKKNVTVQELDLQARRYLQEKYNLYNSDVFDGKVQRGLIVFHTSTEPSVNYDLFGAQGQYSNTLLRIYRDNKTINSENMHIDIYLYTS
Description: Western blot with purified toxin.

B1: mAb 14G8 (antibody, V domains shown)
VH: EVQLLESGGGLVQPGGSLKLSCATSGFTFSAYGLSWVRQTPERRLEWVASISGGGSVYYPDSVKGRFTISRDTAGDILFLQMNSLRSEDSAIYYCVRDLYGDYVGRYAYWGQGTLVIVSA
VL: DIVMTQSPATLSVTPGDRVSLSCRASQSIGDYLHWYQQKSHESPRLLINYASQSISGIPSRFSGSGSGSDFTLIINSVEPEDVGVYYCQNGHSFPYTFGGGTKLEIR
As for B1, the binding result in assay [1] and in assay [2] was “no binding” in each case.

B2: mAb 6D3 (antibody, V domains shown)
VH: QVQLQQSGAELVKPGASVKLSCKASGYTFTSHWMHWVKQRPGQGLEWIGEIDPSDSYINYNQIFEGKATLTVDKSSTTAYLQLSSLTSEDSAVYYCARTAGLLAPMDYWGQGTSVTVSS
VL: DIVMTQSPSSLTVTAGEKVTMTCKSSQSLFNSGNQKNFLTWYQQIPGQPPKLLIYWASTRDSGVPDRFTGSGSGTDFTLTISSVQAEDLAVYYCQNDYTYPLTFGVGTKLELK
B2: the binding result in assay [1] and in assay [2] was “no binding” in each case.

B3: mAb 20B1 (antibody, V domains shown)
VH: QIQLVQSGPELKKPGETVRISCKASGYIFTIAGIQWVQKMPGRGLRWIGWINTHSGVPEYAEEFKGRFAFSLETSARTAYLQISNLKDEDTATYFCARIYYGNNGGVMDYWGQGTSVTVSS
VL: DIQMTQSPSSLSASLGERVSLTCRASQEISDYLTWLQQKPDGTIKRLIYVASSLDSGVPKRFSGSRSGSDYSLTISSLESEDFADYYCLQYANYPWTFGGGTKLEIR
As to B3, the binding result in assay [1] and in assay [2] was “no binding” throughout.

The values are drawn from patent US20140234325A1 (ALBERT EINSTEIN COLLEGE OF MEDICINE, published 2014).
